Assay results reported in patent publication US8530235B2, “Medium that supports culture of an oocyte and modulation of granulosa cell apoptosis” (Adelaide Research & Innovation Pty Ltd., priority 2005, dated 2013).

Columns and labels:
[1] = system: cumulus cells; test: Staurosporine-induced cumulus cell apoptosis in OOX (TUNEL); assay type: cell-based, Bovine; conditions: 10% BMP-15 or 10 ng/ml BMP-6
Protocol: CC apoptoic DNA was detected using TUNEl (Roche Diagnostic, Penzberg, Germany) according to the manufacturer's instructions. […] Complexes were then permeabilized in 0.11/u Triton X-100 in 0.1% sodium citrate for 1 hour at room temperature and washed 3 times in PBS/BSA. The complexes were then incubated in fluorescein-conjugated dUTP and terminal deoxynucleotide transferase (TUNEl reagents, Roche) for 1 hour at 37° C. in the dark. Positive controls were incubated in DNAse 1 (0.005 U/µl), which cleaves all DNA, for 20 minutes at room temperature and washed twice in PBS/BSA before TUNEl. Negative controls were incubated in fluorescein-dUTP in the absence of TdT. After TUNEl, complexes were washed twice in PBS/BSA and counterstained with propidium iodide 0.5 μg/ml (PI) plus RNase A (0.1 mg/ml) for 1 hour at room temperature in the dark to label all nuclei. Complexes were then washed twice in PBS/BSA and mounted with slight coverslip compression in VectaShield anti-bleaching solution (Vector labs, Burlingame, Calif.), and stored in the dark at 4° C. for confocal analysis. […] These optical section images were acquired and saved as independent colour channels (green, apoptotic cumulus fluorescence and red, nuclear cumulus fluorescence). The captured images were then processed in Scanalytics IPlab software Version 3.6. (Scanalytics, Fairfax, Va.). Quantification of CC number (for each colour channel) was independently measured using a macro script utilizing an auto segmentation filter for each optical section percentile (3 optical “z”-plane sections for each complex). A percentage of apoptotic nuclei were generated for each slice and the three percentile values were then averaged to achieve a representation of the total apoptotic nuclei percentage for the whole complex. These processes were repeated separately on each individual complex. A preliminary experiment was conducted to determine the apoptotic effect of staurosporine on bovine CC, which induced apoptosis in a dose-dependent manner (range; 0.1-100 μM, data not shown). The aim of this experiment was to determine whether OSF could prevent CC from undergoing apoptosis induced by staurosporine. OOX alone or co-cultured with 35 DO, 10 ng/ml BMP-6 or 10% (v/v) BMP-15, and were then exposed to either 0.1 μM or 1.0 μM staurospourine for the last 6 hours of the 24 hour incubation period. Three replicates of this experiment were carried out using 10 OOX per treatment group per replicate experiment.

[2] = system: cumulus expansion of oocytectomised (OOX) complexes; test: FSH-induced cumulus expansion score of OOX complexes; assay type: cell-based, mice; conditions: score 0 (no expansion) to +4 (maximum expansion); mean ±SEM; OOX complexes with FSH
Protocol: Members of the TGF-β superfamily are prime candidates for the mouse cumulus expansion-enabling factor (CEEF). This study was conducted to examine TGF-β superfamily processes regulating cumulus expansion. COCs were collected from eGG-primed mice and the oocyte microsurgically removed to generate oocytectomised (OOX) complexes. […] The type-I receptors for GDF9 and […] are ALK5 and ALK4, respectively. We tested the ability of an ALK4/5/7 kinase inhibitor to neutralize cumulus expansion.

[3] = Study V: pregnancy outcome after transfer of blastocysts to pseudo-pregnant females; assay type: in vivo, mice; conditions: oocytes matured with 200 ng/ml GDF9, Day 15 of pregnancy
Protocol: (§1) Oocytes (n=1106) were then fertilised and cultured to the blastocyst stage in G1.2/G2.2 medium at 37° C. in 6% CO2 5% O2. Blastocysts were pooled and either transferred to pseudo-pregnant Swiss females or differentially stained. Pregnancy outcome was assessed on Day 15 of pregnancy.

[4] = system: Smad 1-responsive BRE-luciferase reporter; test: Smad 1-responsive BRE-luciferase reporter in mural granulosa cells from large antral follicles; assay type: cell-based, marmoset monkey, Callithrix jacchus; conditions: 48 h; 0.5 ng/ml TGFβ1, 88-265 ng/ml GDF9, 50 ng/ml BMP7 or 60 mouse oocytes
Protocol: FIGS. 18A and 18B show the activation of the TGF-β signalling pathway by GDF9 and oocytes. MGC from large follicles were transiently transfected with either a Smad 3-responsive CAGA-luciferase reporter construct (A) or a Smad 1-responsive BRE-luciferase reporter construct (B). Cells were subsequently left untreated, treated with 0.5 ng/ml TGFβ1, 88-265 ng/ml GDF9, 50 ng/ml BMP7 or co-cultured with 60 mouse oocytes. Cells were cultured for 48 h after which time luciferase activity was measured from cell extracts. Bars represent means+/− SEM from 3 replicate experiments expressed as a fold change relative to control.
Luciferase reporter constructs responsive to specific phosphorylated Smads were used to detect the activation of mural GC Smad proteins by recombinant GDF9 Mural GCs were collected and processed as described above, except cells were given a final wash in DMEM(MP Biomedicals, Seven Hills, Australia)+2% FCS (Trace Biosciences, Castle Hill, Australia). Following the final wash, cells were transferred to individual wells of a 96-well plate (Falcon) and cultured at 1.6×10^5 cells/ml. After 4 hours of culture, cells were transiently transfected with 50 ng of luciferase reporter construct DNA using Fugene 6 (Roche Diagnostics, Castle Hill, Australia). 18 hours after transfection, medium was aspirated from cells and replaced with DMEM supplemented with 0.1% FCS. Various ligands were added to cells at this point (see below) and the culture period extended for a further 48 hours. Experiments were terminated by removing media from wells and freezing plates at −20° C. […]
Seven adult female marmosets were primed with […] for 6 days, whole ovaries were removed on day 7, follicles manually excised, and GC were then collected from 3 size classes: periantral (PA; 0.42-0.66 mm), small antral (SA; 0.66-1.5 mm) and large antral (LA; >1.5 mm). […] In order to determine the effects of GDF9 on marmoset GC proliferation, we employed a GC bioassay whereby after 24 h ^3H-thymidine incorporation is assessed as an indicator of DNA synthesis and cellular proliferation. […]

[5] = system: cumulus-oocyte complexes; test: Study V: oocyte IVM with GDF9, cumulus expansion and embryo development; assay type: cell-based, mice; conditions: 200 ng/ml GDF9 with FSH/EGF
Protocol: as §1

B1: BMP-15: Recombinant ovine BMP-15 produced in-house in transfected 293H cells, partially purified by hydrophobic interaction chromatography; dosed as % v/v (protein, UniProt Q9MZE2 269-393, looked up)
Bone morphogenetic protein 15: QAGSIASEVPGPSREHDGPESNQCSLHPFQVSFQQLGWDHWIIAPHLYTPNYCKGVCPRVLHYGLNSPNHAIIQNLVSELVDQNVPQPSCVPYKYVPISILLIEANGSILYKEYEGMIAQSCTCR
Which results are given for B1?
CC apoptosis of treated OOX exposed to staurosporine ([1]; 0.1 μM staurosporine): 17%; CC apoptosis of treated OOX exposed to staurosporine ([1]; 1 μM staurosporine): 25%

B2: GDF-9: Recombinant mouse GDF-9 produced in-house in transfected 293H cells, partially purified by HIC (protein, UniProt Q07105 307-441, looked up)
Growth/differentiation factor …: GQKAIRSEAKGPLLTASFNLSEYFKQFLFPQNECELHDFRLSFSQLKWDNWIVAPHRYNPRYCKGDCPRAVRHRYGSPVHTMVQNIIYEKLDPSVPRPSCVPGKYSPLSVLTIEPDGSIAYKEYEDMIATRCTCR
For B2, which cumulus expansion score [2] is on record?
The cumulus expansion score was 3.7±0.1.

And the fetal development ([3]; vs 21%, P=0.04)?
Its fetal development is 39%.

What about the implantation ([3]; vs 77%, not affected) of the same molecule?
Its implantation is 83%.

What about the “BRE-luciferase activity compared to control levels” value [4] of the same molecule?
The value was “not activated”.

What about the “fertilisation, rate of development or blastocyst percentages” value [5] of the same molecule?
The value was “no significant effect”.

And the “blastocyst total cell number” value ([5]; P=0.05)?
The value was “significantly increased”.

And the cumulus expansion index ([5]; vs 2.4±0.1)?
Its cumulus expansion index is 3.1±0.1.

And the blastocyst percentages ([5]; vs 75%, no significant effect)?
Its blastocyst percentages is 83%.
